Measured values as given in patent US10995119B2, “Peptide exhibiting hydrolytic activity and use thereof” (Okinawa Institute of Science and Technology School …, priority 2016, dated 2021).
Read-outs that look alike come from different tables or passages of the source.

Columns and labels:
Aβ1-20 = Aβ1-20 (Homo sapiens, UniProt P05067); assay: Hydrolysis activity against Aβ1-20
Experimental: (§6) Further, any change in activity caused by addition of human serum albumin (HSA, Wako Pure Chemical Industries, Ltd., final concentration 0.025%) also was measured.
(§7) As substrates, Aβ42 in the form of soluble powder (authentic sample, Peptide Institute Inc.) and fragment peptides thereof, namely, Aβ1-20, Aβ11-29, and soluble Aβ28-42, were used. […] In the case of MS analysis, the MS analysis was performed after applying 20 μl of the reaction solution to HPLC and collecting an aliquot of the peak.
(§8) The present experiment examined activity against Aβ-Fs in Example 7.
(§9) As substrates, the same Aβ1-20 and Aβ11-29 as used in Example 7 were used.

PrP 175-189 = PrP 175-189 (Homo sapiens, UniProt P04156)
Aβ11-29 = Aβ11-29 (Homo sapiens, UniProt P05067); assay: Hydrolysis activity against Aβ11-29
Experimental: as §6, §7
As a substrate, Aβ11-29, which is a fragment peptide of Aβ42, was used. […] In the case of MS analysis, the MS analysis was performed after applying 20 μl of the reaction solution after the reaction for 6 days to HPLC and collecting an aliquot of the peak.
as §8
The reaction solution V shown in FIG. 52 was incubated at 37° C. for a predetermined time, and autodigestion of ANA-YA4 (YRMI) and cleavage of Aβ11-29 were examined.
A reaction solution VI shown in FIG. 52 was incubated at 37° C. for a predetermined time, and cleavage of Aβ1-20 and Aβ11-29 by ANA-SA5 was examined.
as §9
The present example examined autodigestion and activity against Aβ-F of JAL 12-17 (YKGSGF) and JAL 12-16 (YKGSG). […] As a substrate, the same Aβ11-29 as used in Example 7 was used. The autodigestion was examined by causing the reaction in the same manner, except that the substrate was not added.

SOD1 2-38 = SOD1 2-38 (Homo sapiens, UniProt P00441); assay: Hydrolysis activity against SOD1 2-38; assay type: biochemical
Sequence of SOD1 2-38 (P00441 2-38 limits assumed): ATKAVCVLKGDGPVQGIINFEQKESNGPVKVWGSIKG
Experimental: As a control, physiological saline (0.9 w/v %) was used instead of the buffer solution. […] Also, it is considered that physiological saline is suitable for storage of JAL before use, for example.
Next, an experiment was conducted to consider an optimal pH for activity using JAL as the hydrolytic peptide and SOD1 2-38 as a substrate.
Metal ions to be added to a reaction solution were Zn^2+, Ca^2+, Co^2+, or combinations thereof. The concentrations of the metal ions in the respective reaction solutions were as follows: 10 mmol/l for Ca^2+; and 5 μmol/l for the other metal ions.
(§1) In JAL 1-22 C19M and JAL 7-22 C19M, Cys residues contained in JAL form S—S bonds during a reaction, and this makes fragment analysis difficult. On this account, JAL 1-22 and JAL 7-22 were modified so as to substitute Cys residues by Met.

SOD1 2-12 = SOD1 2-12 (Homo sapiens, UniProt P00441); assay: Hydrolysis activity against SOD1 2-12; assay type: biochemical
Description: as §1

Aβ1-19 = Aβ1-19 (Homo sapiens, UniProt P05067); assay: Hydrolysis activity against Aβ1-19
Experimental: The present experiment was conducted to consider an optimal concentration of a hydrolytic peptide relative to a substrate, using JAL 7-22 C19M as the hydrolytic peptide and Aβ1-19 as the substrate. The measurement of activity was performed in the same manner as in the above item (1), except that the incubation time was set to 0 days, 3 days, or 5 days.

[1] = Autodigestion of the catalytic peptide (HPLC, MS); assay type: biochemical
Experimental: (§2) First, to a buffer solution (Tris-HCl, pH 6.5, final concentration: 100 mmol/l), JAL (final concentration: 0.2 mmol/l) and the fragment peptide of hMMP7 (final concentration 0.05 mmol/l) were added. […] Thereafter, the reaction solution was subjected to HPLC, and the peaks of JAL and the fragment peptide of hMMP7 were examined. HPLC was performed under the following conditions.
Next, the mechanism of autodigestion was examined using various mutants of JAL as hydrolytic peptides. To a reaction solution containing each of the mutants of JAL, a protease inhibitor (trade name: Roche cOmplete, Roche) was added to cause a reaction. One tablet of the protease inhibitor was dissolved in 1 ml of Milli-Q water, and then, 50 μl of the resultant mixture was added to the reaction solution. […] As a result, the autodigestion of all the peptides subjected to the measurement was inhibited (FIG. 16).
Autodigestion in Box B was examined.
JAL-TA9 was reacted in the same manner except that a substrate was not added to examine the autodigestion of JAL-TA9.
The influence of an inhibitor on autodigestion of JAL-TA9 was examined. […] As the protease inhibitor, the serine protease inhibitor AEBSF, which inhibited the autodigestion of JAL 12-22 C19M in the item (6) in Example 4, was used.

hMMP7 42-50 = molecular target: T1, hMMP7 42-50 (Homo sapiens, UniProt P09237); assay: Hydrolysis activity against hMMP7 42-50 (HPLC, MS); assay type: biochemical
T1 construct: host or cells: synthetic peptide
Experimental: (§3) The present example examined whether a synthetic peptide JAL has hydrolysis activity against synthetic peptides derived from the prodomain of human matrix metalloprotease 7 (hMMP7).
(§4) The following JAL was used as a hydrolytic peptide, and hMMP7 42-50 or hMMP7 26-50 was used as a substrate.
as §2
(§5) Then, in HPLC, aliquots of the peaks were collected (each 20 μl), and fragment identification was performed by mass spectrometry (ABI QSTAR Elite system) (referred to as “MS” hereinafter). MS was performed by a flow injection method under the following conditions.

hMMP7 26-50 = molecular target: T2, hMMP7 26-50 (Homo sapiens, UniProt P09237); assay: Hydrolysis activity against hMMP7 26-50 (HPLC, MS); assay type: biochemical
T2 construct: host or cells: synthetic peptide
T2 sequence (P09237 26-50 limits assumed): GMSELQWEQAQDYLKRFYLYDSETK
Experimental: as §3, §4, §2, §5

hMMP7 1-42 = molecular target: T3, hMMP7 1-42 (Homo sapiens, UniProt P09237); assay: Hydrolysis activity against hMMP7 1-42, optimal pH; assay type: biochemical; details: 5 days
T3 sequence (P09237 18-42): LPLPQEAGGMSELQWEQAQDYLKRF
Description: The pH of the reaction solution was adjusted using an acetate buffer solution in the pH range from 3.5 to 6.0 and using a Tris-HCl buffer solution in the pH range from 6.5 to 8.0. In either case, the final concentration was set to 150 mmol/l.

SOD1 12-38 = SOD1 12-38 (Homo sapiens, UniProt P00441); assay: Hydrolysis activity against SOD1 12-38; assay type: biochemical; details: pH 6.5 or 7.5, 3 or 4 days
Sequence of SOD1 12-38 (P00441 12-38 limits assumed): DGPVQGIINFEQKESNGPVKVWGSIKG

SOD1 53-70 = SOD1 53-70 (Homo sapiens, UniProt P00441); assay: Hydrolysis activity against SOD1 53-70; assay type: biochemical; details: pH 6.5 or 7.5, 3 or 4 days
SOD1 115-154 = SOD1 115-154 (Homo sapiens, UniProt P00441); assay: Hydrolysis activity against SOD1 115-154; assay type: biochemical; details: pH 6.5 or 7.5, 3 or 4 days
Sequence of SOD1 115-154 (P00441 115-154): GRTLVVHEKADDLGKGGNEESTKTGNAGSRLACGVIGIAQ

[2] = Example 5 (1), JAL 14-18 and mutants
[3] = Example 3 (1), substrate SOD1 2-38 or SOD1 2-12
[4] = reaction solution VI, reaction for 1 day
[5] = reaction solution VI, reaction for 5 days
[6] = JAL 0.2 mmol/l, substrate 0.05 mmol/l, Tris-HCl pH 6.5, 37° C., 14 days, HPLC

Sequence of Aβ1-20 (P05067 672-691 limits assumed): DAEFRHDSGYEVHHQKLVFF

DSGFR
hydrolysis activity against Aβ1-20 (Aβ1-20; [2]): strong activity

FPEKPCKGSGYRCIRI [BTG1 7-22]
hydrolysis activity against PrP 175-189 (PrP 175-189): exhibited activity

AKGSGFRMI
hydrolysis activity against Aβ11-29 (Aβ11-29; Example 3 (6)): exhibited activity

YPEKPYKGSGFRCIHI [JAL 7-22]
hydrolysis activity of JAL mutants (SOD1 2-38; [3]): exhibited hydrolysis activity | hydrolysis activity of JAL mutants (SOD1 2-12; [3]): exhibited hydrolysis activity | hydrolysis activity against Aβ1-19 (Aβ1-19; high peptide concentration): lowered | hydrolysis activity against Aβ1-19 (Aβ1-19; substrate:peptide 1:1 (0.05 mmol/l) and 1:4 (0.2 mmol/l), 3 or 5 days): strong activity

YKGSGFRMI [JAL 12-20 C19M]
autodigestion in presence of protease inhibitor ([1]; AEBSF, with Aβ11-29, 1 day): inhibited by AEBSF | hydrolysis activity against Aβ11-29 (Aβ11-29; Example 3 (6)): exhibited activity | hydrolysis activity against Aβ11-29 (Aβ11-29; Example 4 (5)): strong activity

AISSSMHSLYGLGLGS [Tob1 221-236]
autodigestion ([1]; Example 6, HSA added, 5 days): fragments suggesting autodigestion of Tob1 221-236 were observed | hydrolysis activity against Aβ11-29 (Aβ11-29; Example 6 (3)): exhibited activity

YRMI [ANA-SA4]
autodigestion ([1]; reaction solution V, 37° C.): digested itself | cleavage of Aβ1-20 (Aβ1-20; reaction solution V, 37° C.): degraded Aβ1-20 | Aβ1-20 peak remaining (Aβ1-20; [4]): 49.6% | Aβ1-20 peak (Aβ1-20; [5]): almost disappeared | cleavage of Aβ11-29 (Aβ11-29; reaction solution V, 37° C.): degraded Aβ11-29 | Aβ11-29 peak remaining (Aβ11-29; [4]): 72% | Aβ11-29 peak (Aβ11-29; [5]): almost disappeared

KYEGHWYPEKPYKGSGFRCIHI [JAL]
cleavage of substrate, fragment identification by MS (hMMP7 42-50; 16 days): cleaved at a plurality of sites | hydrolysis activity against hMMP7 42-50 (hMMP7 42-50; [6]): has activity | cleavage of substrate, fragment identification by MS (hMMP7 26-50; 16 days): cleaved at a plurality of sites | hydrolysis activity against hMMP7 26-50 (hMMP7 26-50; [6]): has activity | hydrolysis activity against hMMP7 1-42 (hMMP7 1-42; pH 3.5 to 6.0, acetate buffer 150 mmol/l): exhibited activity | hydrolysis activity against hMMP7 1-42 (hMMP7 1-42; pH 6.5 to 8.0, Tris-HCl 150 mmol/l): the results obtained were the same as that obtained after a lapse of 0 days from the start of the reaction | autodigestion ([1]; Tris-HCl pH 6.5, 37° C., 14 days, with hMMP7 fragment): autodigestion of JAL occurred | cleavage sites, fragment identification by MS (SOD1 2-38): a plurality of sites indicated with arrows were cleaved | hydrolysis activity against SOD1 2-38 (SOD1 2-38; Tris buffer solution at various concentrations, 1 or 4 days): exhibited activity regardless of the concentration of the Tris buffer solution | hydrolysis activity against SOD1 2-38 (SOD1 2-38; assay buffer solution (50 mmol/l Tris-HCl pH 7.5, NaCl, Ca, Zn, Briji35, NaN3) vs Tris buffer pH 6.5, 0, 1, 3 days): cleavage by JAL was observed earlier | hydrolysis activity against SOD1 2-38 (SOD1 2-38; only Milli-Q water (0 mmol/l Tris)): did not exhibit activity | hydrolysis activity against SOD1 2-38 (SOD1 2-38; pH 6.5 or 7.5, 3 or 4 days): strong activity | hydrolysis activity against SOD1 2-38 (SOD1 2-38; pH 6.5 to 8.0 in increments of 0.5, 1 day): exhibited activity at all the pH values | hydrolysis activity against SOD1 2-38 (SOD1 2-38; physiological saline (0.9 w/v %) instead of buffer): did not exhibit activity | hydrolysis activity against SOD1 2-38 (SOD1 2-38; with or without Zn2+, Ca2+, Co2+, 1 day): exhibited activity regardless of the presence or absence of the metals | hydrolysis activity against SOD1 12-38 (SOD1 12-38): has activity | hydrolysis activity against SOD1 53-70 (SOD1 53-70): strong activity | hydrolysis activity against SOD1 115-154 (SOD1 115-154): did not exhibit activity | cleavage sites, fragment identification by MS (SOD1 2-12): a plurality of sites indicated with arrows were cleaved | hydrolysis activity against SOD1 2-12 (SOD1 2-12; pH 6.5 or 7.5, 3 or 4 days): has activity | hydrolysis activity against Aβ1-20 (Aβ1-20; Example 3 (2), (6)): has activity | hydrolysis activity against Aβ1-20 (Aβ1-20; PBS (pH 7.4), 3 or 5 days): exhibited activity | hydrolysis activity against Aβ1-20 (Aβ1-20; phosphate buffer solution, 3 or 5 days): did not exhibit activity

YKGSGFRMIHA
hydrolysis activity against Aβ11-29 (Aβ11-29; Example 3 (6)): exhibited activity

GSGQR
hydrolysis activity against Aβ11-29 (Aβ11-29; [2]): strong activity

HSDCPSKGQAFRCIRI [BTG4 7-22]
hydrolysis activity against PrP 175-189 (PrP 175-189): exhibited activity

GSGVR
hydrolysis activity against Aβ1-20 (Aβ1-20; [2]): strong activity

SKGQA [ANA-SA5]
types of fragments of Aβ1-20 detected (Aβ1-20; reaction for 5 days): 12 | types of fragments of Aβ11-29 detected (Aβ11-29; reaction for 5 days): 13

YPEKPLKGSGFRCVHI [Tob2 7-22]
hydrolysis activity against PrP 175-189 (PrP 175-189): exhibited activity | hydrolysis activity against PrP 175-189 (PrP 175-189; Cu2+ further added to HSA): exhibited activity

WVDPYEVSYRIGE [Box B BTG1 8-20]
autodigestion ([1]; Example 6, HSA added, 5 days): fragments suggesting the occurrence of autodigestion were observed | hydrolysis activity against Aβ11-29 (Aβ11-29; Example 6 (3)): exhibited activity
